Test results from patent publication US20190016785A1 (HUMABS BIOMED, published 2019).

Columns and labels:
[1] = target: HBsAg of HBV genotype D (GenBank J02203, ayw3) (hepatitis B virus, genotype D, UniProt P03138 164-389); test: flow cytometry, permeabilized transfected Hep2 cells, 5000 to 7 ng/ml
HBsAg P120T = HBsAg P120T (hepatitis B virus, genotype D, UniProt Q913A6 175-400); test: flow cytometry, permeabilized transfected Hep2 cells, 5 µg/ml

| Binder | binding result [1] | binding result (HBsAg P120T) |
| --- | --- | --- |
| HBC34-V7 (antibody, V domains shown, also called variant 7; HMB34-V7) VH: ELQLVESGGGWVQPGGSQRLSCAASGRIFRSFYMSWVRQAPGKGLEWVATINQDGSEKLYVDSVKGRFTISRDNAKNSLFLQMNNLRVEDTAVYYCAAWSGNSGGMDVWGQGTTVSVSS VL: SYELTQPPSVSVSPGQTVSIPCSGDKLGNKNVCWFQHKPGQSPVLVIYEVKYRPSGIPERFSGSNSGNTATLTISGTQAMDEAAYFCQTFDSTTVVFGGGTRLTVL | binds |  |
| HBC34 (antibody, V domains shown, also called human monoclonal antibody HBC34; WT) VH: ELQLVESGGGWVQPGGSQRLSCAASGRIFRSFYMSWVRQAPGKGLEWVATINQDGSEKLYVDSVKGRFTISRDNAKNSLFLQMNNLRVEDTAVYYCAAWSGNSGGMDVWGQGTTVSVSS VL: SYELTQPPSVSVSPGQTVSIPCSGDKLGNKNVCWFQHKPGQSPVLVIYEVKYRPSGIPERFSGSNSGNTATLTISGTQAMDEAAYFCQTWDSTTVVFGGGTRLTVL |  | binds |
